Measured values published in patent publication US7217700.

Key:
CCR6 (human) = target: T1, CCR6 (human) (UniProt P51684); test: cell-based or functional assay
T1 sequence (looked up): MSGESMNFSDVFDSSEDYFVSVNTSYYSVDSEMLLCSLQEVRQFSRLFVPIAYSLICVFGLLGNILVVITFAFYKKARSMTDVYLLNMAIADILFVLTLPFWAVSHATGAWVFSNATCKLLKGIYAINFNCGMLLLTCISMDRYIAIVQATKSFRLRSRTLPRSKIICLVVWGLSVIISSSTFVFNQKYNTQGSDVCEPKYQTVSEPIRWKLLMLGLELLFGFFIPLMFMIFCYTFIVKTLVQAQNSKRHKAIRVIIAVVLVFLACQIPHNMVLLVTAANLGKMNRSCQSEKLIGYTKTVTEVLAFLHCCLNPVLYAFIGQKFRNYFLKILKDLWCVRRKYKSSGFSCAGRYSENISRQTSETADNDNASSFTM

CCR7 (human) = CCR7 (human) (UniProt P32248); test: cell-based or functional assay
Sequence of UniProt P32248 (P32248 25-378): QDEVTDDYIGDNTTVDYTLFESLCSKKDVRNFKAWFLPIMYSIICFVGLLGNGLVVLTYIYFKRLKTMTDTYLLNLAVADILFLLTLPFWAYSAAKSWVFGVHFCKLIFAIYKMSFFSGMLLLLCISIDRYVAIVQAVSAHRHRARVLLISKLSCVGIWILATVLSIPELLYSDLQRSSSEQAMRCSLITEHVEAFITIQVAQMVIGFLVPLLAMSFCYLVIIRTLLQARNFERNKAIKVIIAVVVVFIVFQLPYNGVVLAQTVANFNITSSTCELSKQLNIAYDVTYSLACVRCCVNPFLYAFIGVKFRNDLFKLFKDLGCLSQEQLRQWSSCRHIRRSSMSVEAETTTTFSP

Ca2+ flux (Indo-1 fluorimetry) in immature CD34+-derived DC; concentration giving the maximal flux (CCR6 (human)) [ng/mL] | chemotaxis (Boyden microchamber) of DC precursors (CD1a-CD86-); concentration at which the response is detected (CCR6 (human)) [ng/mL] | chemotaxis (Boyden microchamber) of immature DC (CD1a+CD86-); concentration needed to attract the cells (CCR6 (human)) [ng/mL] | Ca2+ flux (Indo-1 fluorimetry) in mature CD34+-derived DC; concentration giving the maximal flux (CCR7 (human)) [ng/mL] | chemotaxis (Boyden microchamber) of mature DC (CD1a+CD86+); concentration needed to recruit the cells (CCR7 (human)) [ng/mL] | chemotaxis of CD40L-activated CD34+-derived DC; concentration required at 48 h (CCR7 (human)) [ng/mL] | Substance
30 | 1 to 10 | > 300 | – | – | – | Recombinant human MIP-3α (from UniProt P78556 27-96) (ligand)
– | – | – | 30 | 300 | 100 to 300 | Recombinant human MIP-3β (from UniProt Q99731 22-98) (ligand)
